According to patent US20090062189A1, “TUMOR SUPPRESSOR PROTEIN AND NUCLEOTIDE ENCODING SAME” (priority 2006, published 2009):

Assays:
MCF-7 cells [1] = experiment: MTS cell proliferation assay
Description: (§1) To determine whether or not alterations in PDZD2 and sPDZD2 levels in inhibitor-treated cells are associated with any changes in the cell growth rate, we also monitored DU145, PC-3, 22Rv1, MCF-7 and Hep-G2 cell proliferation by MTS-based assays. Cell proliferation was measured by a tetrazolium-based Cell Titer 96® AQucous assay kit (Promega). Absorbance at 490 nm was recorded 3 hours after MTS addition.
(§2) Cell proliferation was measured by a tetrazolium-based Cell Titer 96® AQucous assay kit (Promega). Absorbance at 490 nm was recorded 3 hours after MTS addition. […] The number of viable cells was counted using hemocytometers. Any apoptotic effect on cancer cells induced by sPDZD2 was measured by the Cell Death Detection ELISA^PLUS assay kit (Roche), which detects the presence of mono- and oligonucleosomes in the cytoplasm of the cells after lysis. Briefly, the cancer cells (1×10^5/ml) were seeded in 24-well plates and treated with 10^−8 M and 10^−7 M sPDZD2 for 24 hours. After treatment, cells were harvested and any apoptosis was detected according to manufacturer's instructions.

MCF-7 cells [2] = experiment: Trypan blue dye exclusion cell viability assay; type: cell-based, human; settings: for viability of the cells: mean ± S.E.
DU145 cells = experiment: MTS cell proliferation assay
Description: as §1, §2

DU 145 cells = experiment: Trypan blue dye exclusion cell viability assay; type: cell-based, human; settings: for viability of the cells: DU 145, mean ± S.E.
PC-3 cells [3] = experiment: MTS cell proliferation assay
Description: as §1, §2

[4] = system: DU145 prostate cancer xenograft tumors; experiment: DU145 prostate cancer xenograft tumor volume in nude mice; type: in vivo, male BALB/c athymic nude mice
Description: Data are shown as mean±S.E. Two group comparisons were analyzed by unpaired Student's t test. The level of significance for all statistical analyses was set at P<0.05. * P<0.05 compared to saline-treated control.
For in vivo studies, DU145 cancer cells (5×10^6) in 0.2 ml FBS-containing-EMEM medium were injected subcutaneously into the right flank of each male BALB/c athymic nude mice (weight, 20±2 g). After cancer cell injection, the mice were randomly divided into 3 groups, namely the control, low-dose treatment, and high-dose treatment groups. Ten days after tumor cell implantation, each mouse of the low-dose treatment group and high-dose treatment group was injected, respectively, once daily by the intraperitoneal route with 0.084 mg (in 0.1 ml saline) and 8.4 mg (in 0.1 ml saline) recombinant sPDZD2 for 58 days. The width and length of the tumor in millimeters were measured weekly by a caliper, when the implanted tumor became measurable. The tumor volume was calculated according to the following formula: Volume=d^2×D/2 mm^3, where d is the shorter width and D was the longer length.

LNCaP cells [5] = experiment: Trypan blue dye exclusion cell viability assay; type: cell-based, human
Description: The effects of sPDZD2 on cell viability were monitored by trypan blue dye exclusion assays. Data are shown as mean±S.E. Two group comparisons were analyzed by unpaired Student's t test. The level of significance for all statistical analyses was set at P<0.05. P<0.001 compared to control.

PC-3 cells [6] = experiment: Trypan blue dye exclusion cell viability assay; type: cell-based, human; settings: for viability of the cells: mean ± S.E.
LNCaP cells [7] = experiment: Cell Death Detection ELISA PLUS apoptosis assay; type: cell-based, human
Description: Data are shown as mean±S.E. Two group comparisons were analyzed by unpaired Student's t test. The level of significance for all statistical analyses was set at P<0.05. *** P<0.001 compared to control.

Hep-G2 cells [8] = experiment: MTS cell proliferation assay
Description: as §1, §2

22Rv1 cells [9] = experiment: Trypan blue dye exclusion cell viability assay; type: cell-based, human; settings: for viability of the cells: mean ± S.E.
22Rv1 cells [10] = experiment: MTS cell proliferation assay
Description: as §1, §2

Hep-G2 cells [11] = experiment: Trypan blue dye exclusion cell viability assay; type: cell-based, human; settings: for viability of the cells: mean ± S.E.
[12] = 10^−9 M, 10^−8 M, 10^−7 M sPDZD2, 24 and 48 hours, P<0.001
[13] = co-incubation 10^−8 M sPDZD2 with 10 μM Z-DEVD-FMK, 48 hours

B1: sPDZD2: secreted 37 kDa cleavage product of human PDZD2, tumor suppressor protein of SEQ ID NO: 2; recombinant form carries N-terminal AGH (protein)
chain: LDKLCSEDYSAGPSAVLFKTELEITPRRSPGPPAGGVSCPEKGGNRACPGGSGPKTSAAETPSSASDTGEAAQDLPFRRSWSVNLDQLLVSAGDQQRLQSVLSSVGSKSTILTLIQEAKAQSENEEDVCFIVLNRKEGSGLGFSVAGGTDVEPKSITVHRVFSQGAASQEGTMNRGDFLLSVNGASLAGLAHGNVLKVLHQAQLHKDALVVIKKGMDQPRPSARQEPPTANGKGLLSRKTIPLEPGIGRSVAVHDALCVEVLKTSAGLGLSLDGGKSSVTGDGPLVIKRVYKGGAAEQAGIIEAGDEILAINGKPLVGLMHFDAWNIMKSVPEGPVQLLIRKHRNSS
MCF-7 cells [1]; 10^−7 M sPDZD2 (first-named of '10^−7 M and 10^−7 M'), 24 hours
  decrease in cell proliferation: 14.5%
MCF-7 cells [1]; 10^−7 M sPDZD2 (second-named), 24 hours
  decrease in cell proliferation: 23.2%
MCF-7 cells [1]; 10^−7 M sPDZD2, 48 hours
  decrease in cell proliferation: 21.4%
MCF-7 cells [1]; [12]
  effect on cell proliferation (in words): concentration-dependent inhibition
MCF-7 cells [1]; 1108 M sPDZD2, 48 hours
  decrease in cell proliferation: 13.7%
MCF-7 cells [1]; [13]
  effect on the increase in cell proliferation induced by caspase-3 inhibitor treatment: abolished
MCF-7 cells [2]; 10^−7M sPDZD2, 24 hrs.
  viability of the cells: 97.34 ± 0.42%
MCF-7 cells [2]; 10^−7M sPDZD2, 48 hrs.
  viability of the cells: 92.07 ± 0.89%
MCF-7 cells [2]; 10^−8M sPDZD2, 24 hrs.
  viability of the cells: 96.69 ± 0.50%
MCF-7 cells [2]; 10^−8M sPDZD2, 48 hrs.
  viability of the cells: 93.86 ± 0.76%
MCF-7 cells [2]; sPDZD2, 24 and 48 hours
  changes in cell viability (in words): No changes
DU145 cells; 10^−7 M sPDZD2, 24 hours
  decrease in cell proliferation: 29.9%
DU145 cells; 10^−7 M sPDZD2, 48 hours
  decrease in cell proliferation: 43.5%
DU145 cells; 10^−8 M sPDZD2, 24 hours
  decrease in cell proliferation: 25.8%
DU145 cells; 10^−8 M sPDZD2, 48 hours
  decrease in cell proliferation: 38.6%
DU145 cells; [12]
  effect on cell proliferation (in words): concentration-dependent inhibition
DU145 cells; [13]
  effect on the increase in cell proliferation induced by caspase-3 inhibitor treatment: abolished
DU 145 cells; 10^−7M sPDZD2, 24 hrs.
  viability of the cells: 93.78 ± 1.06%
DU 145 cells; 10^−7M sPDZD2, 48 hrs.
  viability of the cells: 95.25 ± 0.88%
DU 145 cells; 10^−8M sPDZD2, 24 hrs.
  viability of the cells: 94.66 ± 0.69%
DU 145 cells; 10^−8M sPDZD2, 48 hrs.
  viability of the cells: 95.09 ± 1.02%
DU 145 cells; DU145, sPDZD2, 24 and 48 hours
  changes in cell viability (in words): No changes
PC-3 cells [3]; 10^−7 M sPDZD2, 24 hours
  decrease in cell proliferation: 22.6%
PC-3 cells [3]; 10^−7 M sPDZD2, 48 hours
  decrease in cell proliferation: 41.6%
PC-3 cells [3]; 10^−8M sPDZD2, 24 hours
  decrease in cell proliferation: 13.5%
PC-3 cells [3]; 10^−8 M sPDZD2, 48 hours
  decrease in cell proliferation: 23.8%
PC-3 cells [3]; [12]
  effect on cell proliferation (in words): concentration-dependent inhibition
PC-3 cells [3]; [13]
  effect on the increase in cell proliferation induced by caspase-3 inhibitor treatment: abolished
[4]; high dose 8.4 mg once daily intraperitoneal for 58 days, at 39, 46, 53, 60 and 67 days after tumor cell implantation
  tumor volumes compared with saline-treated group: significant decreases
[4]; low dose 0.084 mg once daily intraperitoneal for 58 days
  tumor volumes compared with saline-treated group: No significant differences
LNCaP cells [5]; 10^−7 M sPDZD2, 24 hours
  decrease in cell viability: 26.2%
LNCaP cells [5]; 10^−7 M sPDZD2, 48 hours
  decrease in cell viability: 18.6%
LNCaP cells [5]; 10^−8M sPDZD2, 48 hours
  decrease in cell viability: 14.7%
PC-3 cells [6]; 10^−7M sPDZD2, 24 hrs.
  viability of the cells: 90.86 ± 1.12%
PC-3 cells [6]; 10^−7M sPDZD2, 48 hrs.
  viability of the cells: 95.45 ± 0.56%
PC-3 cells [6]; 10^−8M sPDZD2, 24 hrs.
  viability of the cells: 95.03 ± 1.00%
PC-3 cells [6]; 10^−8M sPDZD2, 48 hrs.
  viability of the cells: 95.49 ± 0.79%
PC-3 cells [6]; sPDZD2, 24 and 48 hours
  changes in cell viability (in words): No changes
LNCaP cells [7]; 10^−7 M sPDZD2, 24 hours
  absorbance at 405 nm (mono- and oligo-nucleosomes in the cell cytoplasm, apoptosis): Significant (P<0.001) increases
LNCaP cells [7]; sPDZD2, 24 hours
  absorbance at 405 nm (mono- and oligo-nucleosomes in the cell cytoplasm, apoptosis): Significant (P<0.001) increases
Hep-G2 cells [8]; 10^−7 M sPDZD2, 24 hours
  decrease in cell proliferation: 23.1%
Hep-G2 cells [8]; 10^−7 M sPDZD2, 48 hours
  decrease in cell proliferation: 22.2%
Hep-G2 cells [8]; 10^−8 M sPDZD2, 24 hours
  decrease in cell proliferation: 21%
Hep-G2 cells [8]; 10^−8 M sPDZD2, 48 hours
  decrease in cell proliferation: 17%
Hep-G2 cells [8]; [12]
  effect on cell proliferation (in words): concentration-dependent inhibition
Hep-G2 cells [8]; [13]
  effect on the increase in cell proliferation induced by caspase-3 inhibitor treatment: abolished
22Rv1 cells [9]; 10^−7M sPDZD2, 24 hrs.
  viability of the cells: 96.04 ± 0.50%
22Rv1 cells [9]; 10^−7M sPDZD2, 48 hrs.
  viability of the cells: 92.65 ± 0.48%
22Rv1 cells [9]; 10^−8M sPDZD2, 24 hrs.
  viability of the cells: 96.01 ± 0.38%
22Rv1 cells [9]; 10^−8M sPDZD2, 48 hrs.
  viability of the cells: 93.02 ± 0.47%
22Rv1 cells [9]; sPDZD2, 24 and 48 hours
  changes in cell viability (in words): No changes
22Rv1 cells [10]; 10^−7 M sPDZD2, 24 hours
  decrease in cell proliferation: 15.4%
22Rv1 cells [10]; 10^−7 M sPDZD2, 48 hours
  decrease in cell proliferation: 27.7%
22Rv1 cells [10]; 10^−8 M sPDZD2, 24 hours
  decrease in cell proliferation: 12.7%
22Rv1 cells [10]; [12]
  effect on cell proliferation (in words): concentration-dependent inhibition
22Rv1 cells [10]; [13]
  effect on the increase in cell proliferation induced by caspase-3 inhibitor treatment: abolished
22Rv1 cells [10]; sPDZD2, 48 hours
  decrease in cell proliferation: 21.7%
Hep-G2 cells [11]; 10^−7M sPDZD2, 24 hrs.
  viability of the cells: 93.37 ± 0.54%
Hep-G2 cells [11]; 10^−7M sPDZD2, 48 hrs.
  viability of the cells: 93.58 ± 0.64%
Hep-G2 cells [11]; 10^−8M sPDZD2, 24 hrs.
  viability of the cells: 93.38 ± 0.54%
Hep-G2 cells [11]; 10^−8M sPDZD2, 48 hrs.
  viability of the cells: 93.64 ± 0.66%
Hep-G2 cells [11]; sPDZD2, 24 and 48 hours
  changes in cell viability (in words): No changes
